Data taken from PMC6294806.
“And” between values parts separate entries of the source, which are not always exact repeats. Equal entries are not always repeated.

Legend:
[1] = molecular target: Protein G of the commercial protein G-based microplate (UniProt P19909); test: ELISA; sandwich ELISA on commercial protein G-based microplates coated with anti-IFN-α antibody (2 μg/ml); AGP3-biotin 1 μg/ml, 1 hour at room temperature in DMEM/BSA; streptavidin-HRP and ABTS; background absorbance
[2] = molecular target: 8pG receptor: eight tandemly repeated protein G C2 domains fused to an HA epitope and the immunoglobulin C2-type extracellular-transmembrane-cytosolic domains of mouse B7-1 (mB7) (not stated (streptococcal cDNA) | mouse); test: ELISA; 3.3-biotin (1 μg/ml serially diluted in DMEM/BSA) added to paraformaldehyde-fixed 8pG cell-based microplates, room temperature 1 hour; streptavidin-HRP and ABTS, absorbance 405 nm

Row | background OD 405 [1] | fold absorbance over the commercial protein G-based microplate, 0.01 ug/mL 3.3-biotin [2] | fold absorbance over the commercial protein G-based microplate, 0.04 ug/mL 3.3-biotin [2] | fold absorbance over the commercial protein G-based microplate, 0.11 ug/mL 3.3-biotin [2] | fold absorbance over the commercial protein G-based microplate, 1 ug/mL 3.3-biotin [2] | fold absorbance over the traditional polystyrene-based microplate, 0.01 ug/mL 3.3-biotin [2] | fold absorbance over the traditional polystyrene-based microplate, 0.04 ug/mL 3.3-biotin [2] | fold absorbance over the traditional polystyrene-based microplate, 0.11 ug/mL 3.3-biotin [2] | fold absorbance over the traditional polystyrene-based microplate, 1 ug/mL 3.3-biotin [2] | other [2] | Substance
1 | 1.29 |  |  |  |  |  |  |  |  |  | Biotin-conjugated monoclonal mouse anti-PEG IgM antibody AGP3
2 |  | 6.8 fold | 6.2 fold | 2.7 fold | 1.2 fold | 23 fold | 12.4 fold | 8.8 fold | 1.5 fold | 1.6 fold and 4.3 fold | Biotin-conjugated monoclonal mouse anti-PEG antibody 3.3 (IgG type)
